# Measurements as given in the supplement of paper PMC10567573.
# ± gives the standard deviation.
# Assay: protein stability index of a GFP-peptide fusion (GPS, HEK-293T) (PSI 1-6); higher = more stable
# [1] = treatment: DMSO, c terminus: a fixed tail appended
# [2] = treatment: MLN4924 1 uM, 8 h, c terminus: a fixed tail appended
# [3] = treatment: DMSO, c terminus: native
# [4] = treatment: MLN4924 1 uM, 8 h, c terminus: native
# 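Note: 24-mer peptide tiles fused after GFP, lentivirally expressed, FACS-sorted into six equal bins by GFP/DsRed ratio, decoded by Illumina sequencing, PSI is the read-weighted mean bin number.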
Sequence,protein stability index [1],protein stability index [2],protein stability index [3],protein stability index [4]
LGKLPPQYALELLTVYAWERGSMK [OAS1],2.31 ± 0.61,2.36 ± 0.41,–,–
LGMVGLFGTIISGIQLLIVEYKDI [SLC35F2],3.16 ± 0.42,3.53 ± 0.41,–,–
LGRFSLTPAEGDTEEDDGFVDILE [CDC25B],4.66 ± 0.74,5.06 ± 0.1,–,–
LGSKHKVCMDLRANLKQVKKEDTE [TNNI2],4.76 ± 0.16,4.94 ± 0.23,–,–
LHDCAESGSLEILQLLLGCKARME [FEM1A],2.41 ± 0.31,2.52 ± 0.29,–,–
LIESEAPPKASEQETAKEEDGSVE [C18orf25],5.59 ± 0.31,5.77 ± 0.26,–,–
LIGAAAFLGGVVRMTISLTVILIE [CLCN6],3.27 ± 0.53,2.75 ± 1.3,–,–
LIIQAGIKEVIFMSDKYHDSDEAT [DCTD],2.16 ± 0.28,2.08 ± 0.089,–,–
LKENNFQPYPLPHVRHMAYQLCHA [CLK3],2.46 ± 0.12,2.21 ± 0.26,–,–
LKQLKHPNLVNLIEVFRRKRKMHL [CDKL4],2.44 ± 0.43,2.58 ± 0.3,–,–
LKRSIPQVSPVRRAPSRRHGVRAK [CPN1],4.58 ± 0.23,4.67 ± 0.17,–,–
LKTQSLEGKRKAFYTCASHVTVVI [OR4A15],2.91 ± 0.35,3.24 ± 0.46,–,–
LLAWRCTKLSLLAIHGYTVWAHNL [FBXO33],3.15 ± 0.21,3.13 ± 0.34,–,–
LLDHNANIDIQNGFLLRYAVIKSN [ASB7],2.53 ± 0.17,2.14 ± 0.2,–,–
LLDLQPDFSSGGAAAAAAPAPPPP [SNAP91],4.68 ± 0.23,4.77 ± 0.22,–,–
LLEKDYFGLTYRDAENQKNWLDPA [EPB41L3],3.1 ± 0.29,3.48 ± 0.29,–,–
LLFDMTTHPVTNTTEKQRLVKKLQ [GOLPH3L],2.61 ± 0.26,2.83 ± 0.41,–,–
LLFMTSRVRFGQQKRYQDWFQRQY [INTS3],1.99 ± 0.58,2.24 ± 0.64,–,–
LLRQQLMRAQAQEQERRERREQAA [TFE3],3.82 ± 0.27,4.2 ± 0.15,–,–
LLSGAFKKRRLPPVHIHPAFARQA [FOXJ1],2.21 ± 0.1,2.54 ± 0.36,–,–
LLVFLILVGIFILAVSRPRSSPDD [SCARA5],2.08 ± 0.43,2.07 ± 0.19,–,–
LLYKDGFSTILHLLLGSPHPAATA [LPCAT4],2.71 ± 0.28,2.57 ± 0.54,–,–

Sequence,protein stability index [1],protein stability index [2],protein stability index [3],protein stability index [4]
LNEMRDQYEKMAEKNRKDAEDWFF [KRT17],4.14 ± 0.2,4.1 ± 0.19,–,–
LNLGSGTGYLSSMVGLILGPFGVN [PCMTD2],2.42 ± 0.51,2.48 ± 0.38,–,–
LNLGSGTGYLSTMVGLILGPFGIN [PCMTD1],3.33 ± 0.73,2.87 ± 0.49,–,–
LNRRNGSLRIALSEHLKQRREVAK [EDNRA],3.27 ± 0.45,3.25 ± 0.27,–,–
LNVGNERYVFEAVIRWIAHDTEIR [GAN],2.53 ± 0.57,2.61 ± 0.56,–,–
LPELLLGALPVGSNLTSNLASLVS [RETREG3],2.17 ± 0.2,2.17 ± 0.28,–,–
LPEQVDIIISEPMGYMLFNERMLE [CARM1],2.24 ± 0.69,2.12 ± 0.42,–,–
LPFKPFAIILPILLNIRVATKYV [MIA2],–,–,2.42 ± 0.81,3.36 ± 1.6
LPLLSPKFLVGTVGSDPLIKSDEE [KLHL20],4.33 ± 0.051,4.43 ± 0.073,–,–
LPRGATAAVLAPDSSNASSEPSS [SEPHS2],–,–,5.31 ± 0.21,5.53 ± 0.17
LQAIKAAIMLLPDENREVLQTLLY [DLC1],2.23 ± 0.42,2.22 ± 0.16,–,–
LQALDPQQCVDKESSLGSESEEEE [SLC22A15],5.56 ± 0.28,5.59 ± 0.1,–,–
LQAQVQYQQQHEQQKKDLEILHQQ [SASS6],4.73 ± 0.14,4.93 ± 0.19,–,–
LQLEACGMRRKSLLTRKVICKSDA [GOLPH3],2.95 ± 0.58,3.07 ± 0.43,–,–
LQQLRARLQGLEADCVRGPDGVCL [PBXIP1],2.7 ± 0.29,3.01 ± 0.35,–,–
LQRGEALSALDSKANNLSSLSKKY [SEC22B],4.46 ± 0.11,4.34 ± 0.23,–,–
LQSAPDVKGRVRCLTAGPEVAAQL [ZSWIM9],3.51 ± 0.28,3.6 ± 0.058,–,–
LQVTEDVNSSIKTFFCPNDTYNDM [CLCN6],3.66 ± 0.22,3.65 ± 0.25,–,–
LRALGAQIEKTTNREACRDLSGRR [SDE2],4.21 ± 0.15,4.48 ± 0.26,–,–
LRGGGQVLLGWTLHYFPFFLMGRV [POMT2],3.01 ± 0.44,2.99 ± 0.37,–,–
LRHFFLVEDLVDSLKLALLFYILT [RTN2],2.79 ± 0.79,2.45 ± 0.15,–,–
LRIPEGPIDQGPAIGRVRVLEEQL [FUT8],3.69 ± 0.37,3.85 ± 0.19,–,–
